Measurements published in paper PMC3776929 (Cell, 2013).
Blank lines part the entries; values can stand above or below the binder they belong to.

B4: Swc5 (natural protein, S. cerevisiae, UniProt P38326 1-303, looked up)
chain: MPEVETKIIPNEKEDEDEDGYIEEEDEDFQPEKDKLGGGSDDSDASDGGDDYDDGVNRDKGRNKVDYSRIESESGGLIKTRRARQAEEEYAKTHKYESLTVESIPAKVNSIWEELQEASKNRLLSSSGKVGSVLDGSKEARSTTAAQQEDKILIERNYKFAGETVHEKKWVSRSSAEGQEYLNSLKFKQQAPAAPVQLEKAVRTKSNESRQHLRRPLKRPPLLEQIISGGLRPKLTTLEKSQLDWASYVDRAGLNDELVLHNKDGFLARQEFLQRVGSAEDERYKELRRQQLAQQLQQDSEAS
notes: Swc5, subunit of SWR1, S. cerevisiae; also called small subunit Swc5; source: endogenous, S. cerevisiae; co-purified in the SWR1 complex

How the values were obtained:
Swc2 = target: T1, Swc2 (S. cerevisiae, UniProt Q03388 1-795); experiment: cross-linking; ∼45 μg affinity-purified SWR1 cross-linked with 1 mM DSS d0/d12 in SWR1 buffer, 37°C, 30 min; trypsin, SEC enrichment, LC-MS/MS, xQuest (CX-MS); conditions: both partners purified
T1 construct: Swc2, C-Module subunit of SWR1, S. cerevisiae; source: endogenous, S. cerevisiae; co-purified in the SWR1 complex
T1 sequence (looked up): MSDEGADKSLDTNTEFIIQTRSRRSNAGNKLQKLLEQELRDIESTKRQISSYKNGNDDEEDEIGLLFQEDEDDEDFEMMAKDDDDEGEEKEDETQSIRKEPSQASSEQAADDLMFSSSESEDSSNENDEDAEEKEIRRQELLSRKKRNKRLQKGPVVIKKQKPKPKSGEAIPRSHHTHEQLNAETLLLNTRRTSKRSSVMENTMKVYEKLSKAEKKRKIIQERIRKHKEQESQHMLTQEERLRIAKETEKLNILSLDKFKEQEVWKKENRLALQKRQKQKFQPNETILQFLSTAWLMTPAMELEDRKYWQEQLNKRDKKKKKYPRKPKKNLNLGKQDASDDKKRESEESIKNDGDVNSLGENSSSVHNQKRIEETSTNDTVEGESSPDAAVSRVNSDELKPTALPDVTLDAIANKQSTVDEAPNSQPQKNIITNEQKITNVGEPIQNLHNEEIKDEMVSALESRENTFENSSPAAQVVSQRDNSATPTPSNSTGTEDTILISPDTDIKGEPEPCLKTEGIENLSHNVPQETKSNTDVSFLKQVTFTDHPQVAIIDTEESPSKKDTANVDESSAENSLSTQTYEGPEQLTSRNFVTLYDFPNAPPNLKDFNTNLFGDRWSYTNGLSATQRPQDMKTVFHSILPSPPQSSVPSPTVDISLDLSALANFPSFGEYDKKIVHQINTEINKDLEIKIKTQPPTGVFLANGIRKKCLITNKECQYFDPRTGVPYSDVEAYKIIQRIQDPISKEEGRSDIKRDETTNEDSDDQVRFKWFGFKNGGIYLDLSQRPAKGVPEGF

Swc3 = target: T2, Swc3 (S. cerevisiae, UniProt P31376 1-625); experiment: as above; conditions: both partners purified
T2 construct: Swc3, C-Module subunit of SWR1, S. cerevisiae; source: endogenous, S. cerevisiae; co-purified in the SWR1 complex
T2 sequence (looked up): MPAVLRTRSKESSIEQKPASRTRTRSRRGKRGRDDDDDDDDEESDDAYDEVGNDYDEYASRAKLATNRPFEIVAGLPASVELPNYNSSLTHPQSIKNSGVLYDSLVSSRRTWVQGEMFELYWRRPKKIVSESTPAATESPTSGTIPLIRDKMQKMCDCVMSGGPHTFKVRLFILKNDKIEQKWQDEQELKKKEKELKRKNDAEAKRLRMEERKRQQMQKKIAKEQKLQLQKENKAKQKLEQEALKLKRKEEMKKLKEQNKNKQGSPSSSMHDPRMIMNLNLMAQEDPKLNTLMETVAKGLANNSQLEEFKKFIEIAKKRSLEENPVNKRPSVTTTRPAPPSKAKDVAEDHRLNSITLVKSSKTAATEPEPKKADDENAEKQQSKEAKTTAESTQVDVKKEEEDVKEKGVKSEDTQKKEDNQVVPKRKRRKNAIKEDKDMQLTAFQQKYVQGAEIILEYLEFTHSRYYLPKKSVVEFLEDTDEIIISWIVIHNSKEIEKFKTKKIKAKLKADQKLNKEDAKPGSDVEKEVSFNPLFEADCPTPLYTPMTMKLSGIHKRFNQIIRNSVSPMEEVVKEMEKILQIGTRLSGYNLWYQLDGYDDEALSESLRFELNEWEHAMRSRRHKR

Swc5 = target: B4; experiment: as above; conditions: both partners purified
[1] = target: T3, Swr1, FLAG-tagged catalytic subunit of the SWR1 complex (S. cerevisiae, UniProt Q05471 1-1514); experiment: co-IP; FLAG affinity purification of SWR1 (or a subcomplex) from S. cerevisiae, eluted with 3× FLAG peptide; SDS-PAGE (4%-12% Bis-Tris), Coomassie or SYPRO Orange stain; band intensities normalised for protein size for the stoichiometry; conditions: partners not purified
T3 construct: Swr1, catalytic ATPase subunit of the SWR1 complex, S. cerevisiae; HSA domain in the N-terminal half, split ATPase domain with long insert in the C-terminal half; also called Swr1-3xFLAG; Swr1 ATPase
T3 sequence (Q05471 whole entry, the tested form may be a part, one chain of several): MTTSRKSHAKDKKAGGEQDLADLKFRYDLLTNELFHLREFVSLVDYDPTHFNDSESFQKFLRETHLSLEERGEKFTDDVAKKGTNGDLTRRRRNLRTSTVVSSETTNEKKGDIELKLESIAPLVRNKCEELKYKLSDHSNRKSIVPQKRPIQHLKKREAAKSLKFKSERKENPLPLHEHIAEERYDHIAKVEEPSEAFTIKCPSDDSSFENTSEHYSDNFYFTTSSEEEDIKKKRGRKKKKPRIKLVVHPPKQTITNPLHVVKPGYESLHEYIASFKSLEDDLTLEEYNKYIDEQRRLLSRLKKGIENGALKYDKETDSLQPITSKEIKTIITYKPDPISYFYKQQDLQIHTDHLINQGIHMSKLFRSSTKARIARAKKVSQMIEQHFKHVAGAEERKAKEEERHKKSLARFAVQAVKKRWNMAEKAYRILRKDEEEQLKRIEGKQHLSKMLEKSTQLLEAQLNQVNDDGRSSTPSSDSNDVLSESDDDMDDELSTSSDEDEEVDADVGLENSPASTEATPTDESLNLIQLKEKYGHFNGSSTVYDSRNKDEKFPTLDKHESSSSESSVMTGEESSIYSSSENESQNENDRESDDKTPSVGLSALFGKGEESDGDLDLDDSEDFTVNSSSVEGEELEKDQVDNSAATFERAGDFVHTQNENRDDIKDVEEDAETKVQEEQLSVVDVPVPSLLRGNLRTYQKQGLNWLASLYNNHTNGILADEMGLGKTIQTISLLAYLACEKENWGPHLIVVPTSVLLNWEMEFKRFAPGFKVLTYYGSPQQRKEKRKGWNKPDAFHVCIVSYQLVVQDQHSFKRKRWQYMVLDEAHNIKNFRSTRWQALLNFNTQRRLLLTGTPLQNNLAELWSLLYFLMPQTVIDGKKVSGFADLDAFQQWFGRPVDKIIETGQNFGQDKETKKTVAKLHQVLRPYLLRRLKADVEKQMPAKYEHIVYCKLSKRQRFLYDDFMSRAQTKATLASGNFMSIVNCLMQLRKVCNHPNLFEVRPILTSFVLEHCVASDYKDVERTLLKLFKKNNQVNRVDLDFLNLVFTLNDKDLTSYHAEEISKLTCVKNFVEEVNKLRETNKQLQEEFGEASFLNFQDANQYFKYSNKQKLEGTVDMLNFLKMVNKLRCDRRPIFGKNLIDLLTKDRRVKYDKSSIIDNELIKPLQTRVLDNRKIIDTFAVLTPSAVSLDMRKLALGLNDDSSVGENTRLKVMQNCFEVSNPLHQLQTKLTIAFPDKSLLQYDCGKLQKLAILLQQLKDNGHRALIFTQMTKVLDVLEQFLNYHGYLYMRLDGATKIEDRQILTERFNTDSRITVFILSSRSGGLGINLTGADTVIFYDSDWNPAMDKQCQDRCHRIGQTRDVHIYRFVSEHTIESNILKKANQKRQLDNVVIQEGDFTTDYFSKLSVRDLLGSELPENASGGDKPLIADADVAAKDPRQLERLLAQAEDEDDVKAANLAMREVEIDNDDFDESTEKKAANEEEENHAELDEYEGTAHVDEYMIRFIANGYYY

Act1 = target: T4, Act1 (S. cerevisiae, UniProt P60010 1-375); experiment: cross-linking; ∼45 μg affinity-purified SWR1 cross-linked with 1 mM DSS d0/d12 in SWR1 buffer, 37°C, 30 min; trypsin, SEC enrichment, LC-MS/MS, xQuest (CX-MS); conditions: both partners purified
T4 construct: Act1 (actin), N-Module subunit of SWR1, S. cerevisiae; source: endogenous, S. cerevisiae; co-purified in the SWR1 complex

B1: Bdf1 (natural protein, S. cerevisiae, UniProt P35817 1-686, looked up)
chain: MTDITPVQNDVDVNGNNVNDDVSSNLKRPIDQGDPSNGLAEEENPANNQLHLKKARLDGDALTSSPAGLAENGIEGATLAANGENGYNATGSGAEDEQQGLKKEEGGQGTKQEDLDENSKQELPMEVPKEPAPAPPPEPDMNNLPQNPIPKHQQKHALLAIKAVKRLKDARPFLQPVDPVKLDIPFYFNYIKRPMDLSTIERKLNVGAYEVPEQITEDFNLMVNNSIKFNGPNAGISQMARNIQASFEKHMLNMPAKDAPPVIAKGRRSSAQEDAPIVIRRAQTHNGRPKRTIHPPKSKDIYPYESKKPKSKRLQQAMKFCQSVLKELMAKKHASYNYPFLEPVDPVSMNLPTYFDYVKEPMDLGTIAKKLNDWQYQTMEDFERDVRLVFKNCYTFNPDGTIVNMMGHRLEEVFNSKWADRPNLDDYDSDEDSRTQGDYDDYESEYSESDIDETIITNPAIQYLEEQLARMKVELQQLKKQELEKIRKERRLARGSKKRGKRSKGRSGSKNASSKGRRDKKNKLKTVVTYDMKRIITERINDLPTSKLERAIDIIKKSMPNISEDDEVELDLDTLDNHTILTLYNTFFRQYESSSGASNGLDGTSGVTRDASSLSPTSAGSRKRRSKALSQEEQSRQIEKIKNKLAILDSASPLSQNGSPGQIQSAAHNGFSSSSDDDVSSESEEE
notes: Bdf1, N-Module subunit of SWR1, S. cerevisiae; source: endogenous, S. cerevisiae; co-purified in the SWR1 complex
binding result (Swc2): binds

Binder: B4
binding result [1]: binds
binding result (Act1): binds

The next lines start with the values.

binding result (Swc3): binds
B2: Arp4 (natural protein, S. cerevisiae, UniProt P80428 1-489, looked up)
chain: MSNAALQVYGGDEVSAVVIDPGSYTTNIGYSGSDFPQSILPSVYGKYTADEGNKKIFSEQSIGIPRKDYELKPIIENGLVIDWDTAQEQWQWALQNELYLNSNSGIPALLTEPVWNSTENRKKSLEVLLEGMQFEACYLAPTSTCVSFAAGRPNCLVVDIGHDTCSVSPIVDGMTLSKSTRRNFIAGKFINHLIKKALEPKEIIPLFAIKQRKPEFIKKTFDYEVDKSLYDYANNRGFFQECKETLCHICPTKTLEETKTELSSTAKRSIESPWNEEIVFDNETRYGFAEELFLPKEDDIPANWPRSNSGVVKTWRNDYVPLKRTKPSGVNKSDKKVTPTEEKEQEAVSKSTSPAANSADTPNETGKRPLEEEKPPKENNELIGLADLVYSSIMSSDVDLRATLAHNVVLTGGTSSIPGLSDRLMTELNKILPSLKFRILTTGHTIERQYQSWLGGSILTSLGTFHQLWVGKKEYEEVGVERLLNDRFR
notes: Arp4, actin-related protein, N-Module subunit of SWR1, S. cerevisiae; source: endogenous, S. cerevisiae; co-purified in the SWR1 complex

binding result (Swc5): binds
B3: Yaf9 (natural protein, S. cerevisiae, UniProt P53930 1-226, looked up)
chain: MAPTISKRIKTLSVSRPIIYGNTAKKMGSVKPPNAPAEHTHLWTIFVRGPQNEDISYFIKKVVFKLHDTYPNPVRSIEAPPFELTETGWGEFDINIKVYFVEEANEKVLNFYHRLRLHPYANPVPNSDNGNEQNTTDHNSKDAEVSSVYFDEIVFNEPNEEFFKILMSRPGNLLPSNKTDDCVYSKQLEQEEIDRIEIGIEKVDKEIDELKQKLENLVKQEAINGS
notes: Yaf9, N-Module subunit of SWR1, S. cerevisiae; source: endogenous, S. cerevisiae; co-purified in the SWR1 complex
